# Laboratory results taken from patent US20180030149A1 (AVEO PHARMACEUTICALS, published 2018).
# Numbering of substitutions follows the chain as printed.
# B1: 11G01 (antibody, mouse IgG1, kappa, V domains shown)
# VH: QVQLQQSDAELVKPGASVKISCKVSGYTFTDHIIHWMKQRPEQGLEWIGYIYPRDGYIKYNEKFKGKATLTADKSSSTAYMQVNSLTSEDSAVYFCARGYYYAMDYWGQGTSVTVSS
# VL: DVLMTQTPLSLPVSLGDQASISCRSSQSIVHSIGNTYLEWYLQKPGQSPKLLIYKVSNRFSGVPERFSGSGSGTDFTLKISRVEAEDLGVYYCFQGSHVPFTFGSGTKLEIKR
# notes: Murine IgG1/kappa, from hybridoma; also called anti-hErbB3 monoclonal antibody 11G01
# B2: 12A07 (antibody, mouse IgG1, kappa, V domains shown)
# VH: QVQLLQPGAELVRPGTSVKLSCKTSGYTFSSYWMHWVKQRPGQGLEWIGMIDPSDVYTNYNPKFKGKATLTVDTSSSTAYMQLSSLTSEDSAVYYCARNYSGDYWGQGTTLTVSS
# VL: B1 VL with T7I, I33N, E65D, H98Y, F101W, S105G
# notes: Murine IgG1/kappa, from hybridoma; also called anti-hErbB3 monoclonal antibody 12A07
# B3: 04D01 (antibody, mouse IgG1, kappa, V domains shown)
# VH: QVQLQQPGAELVRPGTSVKLSCKASGYTFTSHWLHWVKQRPGQGLEWIGVLDPSDFYSNYNQNFKGKATLTVDTSSSTAYMQLSSLTSEDSAVYYCARGLLSGDYAMDYWGQGTSVTVSS
# VL: B1 VL with T7I, I33N, L51S, E65D, H98Y, F101W, S105G
# notes: Murine IgG1/kappa, purified from hybridoma; also called anti-hErbB3 monoclonal antibody 04D01
# B4: 22A02 (antibody, mouse IgG1, kappa, V domains shown)
# VH: B2 VH with L5Q, T24A, S30T, S31N, V56S
# VL: B1 VL with I33N, E65D, H98Y, F101W, S105G
# notes: Murine IgG1/kappa, from hybridoma; also called anti-hErbB3 monoclonal antibody 22A02
# B5: 18H02 (antibody, mouse IgG1, kappa, V domains shown)
# VH: QIQLVQSGPELKKPGEAVKISCKSSGYTFTTYGMSWVKQAPGRALKWMGWINTYSGVPTYADDFKGRFAFSLESSASTAYLQINNLKNEDTATYFCARGRDGYQVAWFAYWGQGTLVTVSA
# VL: ETTVTQSPASLSMAIGDKVTIRCITSTDIDDDMNWFQQKPGEPPKLLISEGNTLRPGVPSRFSGSGYGTDFIFTIENMLSEDVADYYCLQSDNLPYTFGGGTKLEIKR
# notes: Murine IgG1/kappa, from hybridoma; also called anti-hErbB3 monoclonal antibody 18H02
# B6: 24C05 (antibody, mouse IgG1, kappa)
# heavy: EVQLVESGGGLVKPGGSLKLSCAASGFTFSDYAMSWVRQTPEKRLEWVATISDGGTYTYYPDNVKGRFTISRDNAKNNLYLQMSHLKSEDTAMYYCAREWGDYDGFDYWGQGTTLTVSSAKTTPPSVYPLAPGSAAQTNSMVTLGCLVKGYFPEPVTVTWNSGSLSSGVHTFPAVLQSDLYTLSSSVTVPSSTWPSQTVTCNVAHPASSTKVDKKIVPRDCGCKPCICTVPEVSSVFIFPPKPKDVLTITLTPKVTCVVVDISKDDPEVQFSWFVDDVEVHTAQTQPREEQFNSTFRSVSELPIMHQDWLNGKEFKCRVNSAAFPAPIEKTISKTKGRPKAPQVYTIPPPKEQMAKDKVSLTCMITDFFPEDITVEWQWNGQPAENYKNTQPIMDTDGSYFVYSKLNVQKSNWEAGNTFTCSVLHEGLHNHHTEKSLSHSPGK
# light: DIQMTQSPSSLSASLGERVSLTCRASQEISGYLSWLQQKPDGTIKRLIYAASTLDSGVPKRFSGSRSGSDYSLTIGSLESEDLADYYCLQYDSYPYTFGGGTKLEIKRADAAPTVSIFPPSSEQLTSGGASVVCFLNNFYPRDINVKWKIDGSERQNGVLNSWTDQDSKDSTYSMSSTLTLTKDEYERHNSYTCEATHKTSTSPIVKSFNRNEC
# notes: Murine IgG1/kappa, from hybridoma; also called murine 24C05; 24C05 IgG1
# B7: Sh24C05-25 (antibody, human IgG1, kappa, V domains shown)
# VH: QVQLVESGGGLVKPGGSLRLSCAASGFTFSDYAMSWIRQAPGKGLEWVSTISDGGTYTYYPDNVKGRFTISRDNAKNSLYLQMNSLRAEDTAVYYCAREWGDYDGFDYWGQGTLVTVSS
# VL: DIQMTQSPSSLSASVGDRVTITCRASQEISGYLSWFQQKPGKAPKSLIYAASTLDSGVPSRFSGSGSGTDFTLTISSLQPEDFATYYCLQYDSYPYTFGQGTKLEIKR
# notes: Humanized, human IgG1/kappa
# B8: Sh24C05-31 (antibody, human IgG1, kappa, V domains shown)
# VH: B7 VH
# VL: B7 VL with F36Y, S46R, D70E
# notes: Humanized, human IgG1/kappa
# B9: Sh24C05-1 (antibody, human IgG1, kappa)
# heavy: not shown
# light: DIQMTQSPSSLSASLGERVSLTCRASQEISGYLSWLQQKPDGTIKRLIYAASTLDSGVPKRFSGSRSGSDYSLTIGSLESEDLADYYCLQYDSYPYTFGGGTKLEIKRTVAAPSVFIFPPSDEQLKSGTASVVCLLNNFYPREAKVQWKVDNALQSGNSQESVTEQDSKDSTYSLSSTLTLSKADYEKHKVYACEVTHQGLSSPVTKSFNRGEC
# notes: Chimeric: mouse 24C05 variable regions, human IgG1/kappa constant regions; also called Chimeric 24C05
# Molecular target: T1, recombinant human ErbB3/Fc fusion protein (human, UniProt P21860 20-643)
# T1 construct: Bought (R&D Systems, Cat. No. 348-RB); the NRG1-α1 assay names Cat. No. 4518-RB instead; also called rhErbB3-Fc; rhErbB3/Fc; not shown: Fc portion of the bought fusion protein
# Experiment: SPR Biacore T100, 25 C; antibody captured on anti-mouse IgG, rhErbB3-Fc injected
# Method: Rabbit anti-mouse IgGs (Biacore, Cat. No. BR-1008-38) were immobilized on carboxymethylated dextran CM4 sensor chips (Biacore, Cat. No. BR-1005-34) by amine coupling (BIAcore, Cat. No. BR-1000-50) using a standard coupling protocol according to vendor's instructions. The analyses were performed at 25° C., using PBS (Invitrogen, Cat. No. 14040-133) containing 0.05% surfactant P20 (Biacore, Cat. No. BR-1000-54) as running buffer.
# The antibodies were captured in individual flow cells at a flow rate of 10 μl/minute. Injection time was varied for each antibody to yield an Rₘₐₓ between 30 and 60 RU. […] The dissociation phase was monitored for up to 3600 seconds. The surface was then regenerated with two 60-seconds injection of 10 mM Glycine-HCl, pH 1.7 (made from Glycine pH 1.5 (Biacore, Cat. No. BR-1003-54) and pH 2.0 (Biacore, Cat. No. BR-1003-55)) at a flow rate of […].
# (§1) Kinetic parameters were determined using the kinetic function of the BIAevaluation software (Biacore) with double reference subtraction. Kinetic parameters for each antibody, kₐ (association rate constant), kd (dissociation rate constant) and KD (equilibrium dissociation constant) were determined.
Kd,koff,kon,Binder
0.091 nM,2.2e-05 s⁻¹,270000 M⁻¹ s⁻¹,B1
0.3 nM,0.00019 s⁻¹,620000 M⁻¹ s⁻¹,B2
0.25 nM,9.3e-05 s⁻¹,380000 M⁻¹ s⁻¹,B3
0.32 nM,0.00022 s⁻¹,700000 M⁻¹ s⁻¹,B4
0.091 nM,2.5e-05 s⁻¹,280000 M⁻¹ s⁻¹,B5
0.0065 nM,9.2e-06 s⁻¹,1.5e+06 M⁻¹ s⁻¹,B6

# Molecular target: T1, recombinant human ErbB3/Fc fusion …
# Experiment: ECL competition; inhibition of NRG1-β1 binding to plate-coated rhErbB3/Fc
# Method: (§2) MA2400 96-well standard binding plates (Meso Scale Discovery, Cat. No. L15XA-6) were coated with 50 μl of 0.5 μg/mL rhErbB3/Fc (R&D systems, Cat. No. 348-RB) in PBS (Invitrogen, Cat. No. 14040-133) for overnight at 4° C. with no agitation. The plates then were washed 3 times with PBS+0.1% Tween20 (Sigma P5927) and blocked with 200 μl of PBS containing 5% BSA (Sera Care Life Sciences, Cat. No. AP-4510-80) for 1.5 hour at room temperature. After washing the plates 3 times with PBS, 25 μl of the antibody dilutions were added to the plates for another hour at room temperature with agitation. […] The plates then were washed 3 times with PBS, and 150 μl of 1× read buffer (Meso Scale Discovery, Cat. No. R92TC-1) was added to each well before the plates were analyzed on a Sector® Imager 2400 (Meso Scale Discovery) instrument.
row,IC50,Binder
1,0.235 nM,B2
2,0.223 nM,B3
3,0.242 nM,B4
4,0.346 nM,B5
5,0.337 nM,B6

# Molecular target: T2, recombinant human ErbB3 monomeric protein (cleaved rhErbB3) (human, UniProt P21860 20-643, limits assumed)
# T2 construct: Monomer made by protease cleavage of the Fc fusion; also called Monomeric ErbB3
# Experiment: SPR Biacore 37 C; supernatant antibody captured on anti-human Fc, cleaved rhErbB3 injected
# Method: (§3) The analyses were performed at 37° C. using PBS (Invitrogen, Catalog No. 14040-133) containing 0.05% surfactant P20 (Biacore, Catalog No. BR-1000-54) as running buffer.
# (§4) The antibodies were captured in individual flow cells at a flow rate of […]. Injection time was varied for each antibody to yield an Rₘₐₓ between 30 and 60 RU. […] The dissociation phase was monitored for up to 1200 seconds. The surface was then regenerated with two 60 second injections of Glycine pH 2.25 (made from Glycine pH 2.0 (Biacore, Catalog No. BR-1003-55) and pH 2.5 (Biacore, Catalog No. BR-1003-56)) at […].
# as §1
Kd,koff,kon,Binder
0.175 nM,0.000459 s⁻¹,2.63e+06 M⁻¹ s⁻¹,B7
0.0865 nM,0.000292 s⁻¹,3.47e+06 M⁻¹ s⁻¹,B8
0.178 nM,0.000448 s⁻¹,2.52e+06 M⁻¹ s⁻¹,B9

# Molecular target: T1, recombinant human ErbB3/Fc fusion …
# Experiment: ECL (MSD) competition: rhErbB3/Fc coated on the plate, antibody dilutions, then NRG1-β1 at 0.25 µg/ml; bound NRG1-β1 detected
# Method: as §2
row,IC50 (read off the curve),Binder
1,~0.2 nM,B2
2,~0.1 nM,B3
3,~0.2 nM,B4
4,~0.3 nM,B5
5,~0.3 nM,B6

# Molecular target: T2, recombinant human ErbB3 monomeric …
# Experiment: SPR Biacore 37 C; purified antibody captured on anti-human Fc, cleaved rhErbB3 0.3125-5.0 nM
# Method: as §3, §4
# The binding affinities and kinetics of certain purified monoclonal antibodies were also determined. To further characterize certain antibodies, the surface plasmon resonance experiments described above were conducted using concentrations of cleaved rhErbB3 between 0.3125 nM and 5.0 nM (a 2-fold serial dilution).
Kd,koff,kon,Binder
0.13 nM,0.0005 s⁻¹,4e+06 M⁻¹ s⁻¹,B7
0.063 nM,0.00028 s⁻¹,4.7e+06 M⁻¹ s⁻¹,B8
0.14 nM,0.00044 s⁻¹,3.5e+06 M⁻¹ s⁻¹,B9

# Molecular target: T3, human ErbB3 (human, UniProt P21860 20-1342)
# Experiment: cell-based or functional assay
row,"IC50, NRG1-β1 dependent proliferation of MCF7 cells (MTT)",Binder
1,1.98 nM,B1
2,0.74 nM,B2
3,0.47 nM,B3
4,1.62 nM,B4
5,1 nM,B5
6,0.39 nM,B6

# Molecular target: T3, human ErbB3
# Experiment: cell-based or functional assay
# Remark: another data set of the same source
inhibition of NRG1-β1 induced phosphorylation of Akt in MCF7 and DU145 cells (ELISA),"inhibition of NRG1-β1 induced phosphorylation of ErbB3 in SKBR-3 cells (ELISA, 5 µg/ml antibody)",Binder
≥ 80%,≥ 50%,B1
≥ 80%,≥ 50%,B2
≥ 80%,≥ 50%,B3
≥ 80%,≥ 50%,B4
≥ 80%,≥ 50%,B5
≥ 80%,≥ 50%,B6
